Results as given in patent publication US20180298070A1, “PEPTIDE COMPOUND” (Takeda Pharmaceutical Company Limited, published 2018).
Non-standard residues stand in square brackets, D forms with d. No end group written: not given here. Aib = CC(C)(N)C(=O)O

Assays:
Assay in all cases: cell-based or functional assay
human GLP-1R [1] = biological target: human GLP-1R (human, UniProt P43220)
human GIPR [2] = biological target: T1, human GIPR (human, UniProt P48546)
T1 sequence: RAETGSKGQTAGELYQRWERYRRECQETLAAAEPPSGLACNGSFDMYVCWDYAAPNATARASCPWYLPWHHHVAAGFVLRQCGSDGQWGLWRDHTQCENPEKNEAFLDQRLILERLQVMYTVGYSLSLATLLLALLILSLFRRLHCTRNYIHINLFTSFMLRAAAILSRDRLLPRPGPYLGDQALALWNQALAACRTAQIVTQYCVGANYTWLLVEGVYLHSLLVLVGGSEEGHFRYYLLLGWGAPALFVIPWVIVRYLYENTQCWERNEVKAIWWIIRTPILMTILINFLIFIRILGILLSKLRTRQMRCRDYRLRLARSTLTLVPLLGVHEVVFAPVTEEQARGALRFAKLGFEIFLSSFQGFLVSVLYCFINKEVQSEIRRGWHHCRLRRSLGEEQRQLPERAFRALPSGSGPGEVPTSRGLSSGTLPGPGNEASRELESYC

human GLP-1R [3] = biological target: human GLP-1R (human, UniProt P43220); remark: listed apart in the source
human GIPR [4] = biological target: T2, human GIPR (human, UniProt P48546); remark: listed apart in the source
T2 sequence: T1 sequence

B1: Compound 307 (peptide)
peptide: YXEGTXISDYSIXLDRXAQXNFVNWXLAQRPSSGAPPPS
modifications: not fully specified; MeTyr at 1; Aib at 2, 13, 20; Iva at 6, 26; Lys(Eda-PEG(3)-PEG(3)-) at 17; C-terminal amide (-NH2)
Q: Which results are given for B1?
A: Agonist activity (EC50, M) (human GLP-1R [1]): > 1e-06 M; Agonist activity (EC50, M) (human GIPR [2]): 4e-11 M

B2: Compound 30 (peptide)
peptide: Y[Aib]EGTVVSLYSI[Aib]LDRQAQ[Aib]EFVRWLLRGGPSSGAPPPSR-NH2
modifications: N-terminus assumed
SMILES: CC[C@H](C)[C@H](NC(=O)[C@H](CO)NC(=O)[C@H](Cc1ccc(O)cc1)NC(=O)[C@H](CC(C)C)NC(=O)[C@H](CO)NC(=O)[C@@H](NC(=O)[C@@H](NC(=O)[C@@H](NC(=O)CNC(=O)[C@H](CCC(=O)O)NC(=O)C(C)(C)NC(=O)[C@@H](N)Cc1ccc(O)cc1)[C@@H](C)O)C(C)C)C(C)C)C(=O)NC(C)(C)C(=O)N[C@@H](CC(C)C)C(=O)N[C@@H](CC(=O)O)C(=O)N[C@@H](CCCNC(=N)N)C(=O)N[C@@H](CCC(N)=O)C(=O)N[C@@H](C)C(=O)N[C@@H](CCC(N)=O)C(=O)NC(C)(C)C(=O)N[C@@H](CCC(=O)O)C(=O)N[C@@H](Cc1ccccc1)C(=O)N[C@H](C(=O)N[C@@H](CCCNC(=N)N)C(=O)N[C@@H](Cc1c[nH]c2ccccc12)C(=O)N[C@@H](CC(C)C)C(=O)N[C@@H](CC(C)C)C(=O)N[C@@H](CCCNC(=N)N)C(=O)NCC(=O)NCC(=O)N1CCC[C@H]1C(=O)N[C@@H](CO)C(=O)N[C@@H](CO)C(=O)NCC(=O)N[C@@H](C)C(=O)N1CCC[C@H]1C(=O)N1CCC[C@H]1C(=O)N1CCC[C@H]1C(=O)N[C@@H](CO)C(=O)N[C@@H](CCCNC(=N)N)C(N)=O)C(C)C
Q: Which “Agonist activity (EC50, M)” value (human GLP-1R [3]) does the source give for B2 here?
A: > 1e-06 M

Q: What about the “Agonist activity (EC50, M)” value (human GIPR [4]) of the same binder?
A: 1e-11 M
